Data reported in patent US6034053A, “EGF-isoflavone conjugates for the prevention of restenosis” (Wayne Hughes Institute, priority 1998, dated 2000).
“Also recorded” adds a separate entry of the source.

B1: EGF-Gen: rhEGF linked via the photoreactive cross-linker Sulfo-SANPAH to genistein at its C7 hydroxyl group (conjugate, UniProt P01133 23-1207, looked up)
Pro-epidermal growth factor: PQHWSCPEGTLAGNGNSTCVGPAPFLIFSHGNSIFRIDTEGTNYEQLVVDAGVSVIMDFHYNEKRIYWVDLERQLLQRVFLNGSRQERVCNIEKNVSGMAINWINEEVIWSNQQEGIITVTDMKGNNSHILLSALKYPANVAVDPVERFIFWSSEVAGSLYRADLDGVGVKALLETSEKITAVSLDVLDKRLFWIQYNREGSNSLICSCDYDGGSVHISKHPTQHNLFAMSLFGDRIFYSTWKMKTIWIANKHTGKDMVRINLHSSFVPLGELKVVHPLAQPKAEDDTWEPEQKLCKLRKGNCSSTVCGQDLQSHLCMCAEGYALSRDRKYCEDVNECAFWNHGCTLGCKNTPGSYYCTCPVGFVLLPDGKRCHQLVSCPRNVSECSHDCVLTSEGPLCFCPEGSVLERDGKTCSGCSSPDNGGCSQLCVPLSPVSWECDCFPGYDLQLDEKSCAASGPQPFLLFANSQDIRHMHFDGTDYGTLLSQQMGMVYALDHDPVENKIYFAHTALKWIERANMDGSQRERLIEEGVDVPEGLAVDWIGRRFYWTDRGKSLIGRSDLNGKRSKIITKENISQPRGIAVHPMAKRLFWTDTGINPRIESSSLQGLGRLVIASSDLIWPSGITIDFLTDKLYWCDAKQSVIEMANLDGSKRRRLTQNDVGHPFAVAVFEDYVWFSDWAMPSVMRVNKRTGKDRVRLQGSMLKPSSLVVVHPLAKPGADPCLYQNGGCEHICKKRLGTAWCSCREGFMKASDGKTCLALDGHQLLAGGEVDLKNQVTPLDILSKTRVSEDNITESQHMLVAEIMVSDQDDCAPVGCSMYARCISEGEDATCQCLKGFAGDGKLCSDIDECEMGVPVCPPASSKCINTEGGYVCRCSEGYQGDGIHCLDIDECQLGEHSCGENASCTNTEGGYTCMCAGRLSEPGLICPDSTPPPHLREDDHHYSVRNSDSECPLSHDGYCLHDGVCMYIEALDKYACNCVVGYIGERCQYRDLKWWELRHAGHGQQQKVIVVAVCVVVLVMLLLLSLWGAHYYRTQKLLSKNPKNPYEESSRDVRSRRPADTEDGMSSCPQPWFVVIKEHQDLKNGGQPVAGEDGQAADGSMQPTSWRQEPQLCGMGTEQGCWIPVSSDKGSCPQVMERSFHMPSYGTQTLEGGVEKPHSLLSANPLWQQRALDPPHQMELTQ
modifications: Pro-epidermal growth factor genistein via Sulfo-SANPAH cross-linker
B2: EGF: unconjugated EGF (modified EGF not conjugated to genistein) (protein, UniProt P01133 23-1207, looked up)
Pro-epidermal growth factor: B1 Pro-epidermal growth factor
modifications: Pro-epidermal growth factor

What was measured:
breast cancer cells = settings: U.S. patent application Ser. No. 08/602,186; cited from earlier work
[1] = tested on: vascular smooth muscle cells (VSMC); assay: Migration of VSMC through Matrigel matrix-coated Boyden chambers; format: cell-based; settings: for Effect on migration of VSMC (in words): EGF-gen 0.25, 0.5, 1 μg/ml or EGF 1 μg/ml, overnight
Description: Migration of VSMC through Matrigel™ matrix was performed as described above for Example 4.
FIGS. 7A-7E show the morphological features of migrated VSMC incubated with 0.25 μg/ml (FIG. 7B), 0.5 μg/ml (FIG. 7C), or 1 μg/ml (FIG. 7D) of EGF-gen or with 1 μg/ml EFG (FIG. 7E), overnight. The control (FIG. 7A) was untreated. The cells were then trypsinized and processed for the migration assay using Matrigel™ matrix-coated boyden chambers. Cells migrated through the matrigel and were counted and expressed as % of controls. FIG. 7F is a bar graph showing the dose dependent inhibition of migration by EGF-Gen.

[2] = tested on: vascular injury-induced neointimal hyperplasia; assay: Murine restenosis model: photoactivated rose bengal vascular injury of the femoral artery, histomorphometric analysis; format: in vivo, C57B1/6 mice; settings: for Stenosis Index (Mean ± SE), neointima/media ratio in areas of maximum neointimal hyperplasia, 2 weeks: 2 weeks after injury, EGF-Gen or unconjugated EGF 0.1 mg/kg/dose twice daily for 14 days; for Effect on neointimal hyperplasia / neointima formation (in words): injured femoral arteries, EGF-Gen at less than 5% of the highest nontoxic dose
Description: Three to four week old C57 B1/6 male mice (Taconic, Germantown, N.Y.) were housed in micro-isolator cages on a 12-hour day/night cycle and kept for 2 weeks on the Paigen's cocoa butter diet of 15.8% fat, 1.25% cholesterol and 0.5% sodium cholate (Harlan Teklad, Madison, Wis., U.S.A.) to induce high plasma cholesterol levels similar to those of patients with lipid disorders.
Mice were injected with 300 microliters of a 3 mg/ml photoactivated rose bengal solution (Aldrich, Milwaukee, Wis.) in sterile PBS via the tail vein and anesthetized with ketamine/xylazine solution (100 mg ketamine/kg and 5 […]). Photoactivation of rose bengal using percutaneous irradiation with a green light source (300 Watt Xenon arced lamp equipped with a 550 nanometer broad band interference filter, Oriel Scientific, Stratford, Conn.) was performed on the shaved left leg by placing a 3.2 mm glass fiber optic light guide directly into the left femoral vein/artery for 10 minutes. The unirradiated right femoral artery served as an internal control.
Following irradiation the mice were treated for either 14 days or 28 days with intraperitoneal injections of (1) EGF-Gen conjugate or unconjugated EGF (modified EGF not conjugated to genistein) at a dose level of 0. I mg/kg/dose once in the morning and once in the evening; or (2) 2 mg/kg/dose of unconjugated genistein or derivatives of 6,7-dimethoxyquinizalone dissolved in 10% DMSO once per day; or (3) with PBS.
At the times indicated, the animals were euthanized with ketamine/xylazine and perfused with PBS followed by 4% phosphate buffered formalin. PBS and formalin were pumped through the left ventricle of the heart and allowed to exit through a 3 mm incision through the interior wall of the right ventricle. The brain, thymus, heart, lung, liver, pancreas, kidney, spleen, intestine, stomach, muscle, skin adrenal, and testes were collected for pathological evaluation. For histopathological studies, tissues were fixed in 10% neutral buffered formalin, dehydrated and embedded in paraffin by routine methods. Tissue blocks containing the femoral artery/vein were excised and post-fixed in 4% phosphate buffered formalin overnight and processed for hemotoxylin and eosin (H&E) or Masson's trichrome staining. Glass slides were affixed with 6 micron tissue sections and were stained with hematoxylin and eosin or Masson's trichrome. Serial sections were examined for areas of maximum neointimal hyperplasia for which the ratios of neointima/media (stenosis index) were determined. This was necessary to compensate for angular differences among specimens. A Pixera camera (Pixera Corp., Calif., USA) was used for image capture and the NIH image 1.61(Rasband et al., 1995, Microbeam Analysis Soc. J. 4:137-149) program was used for histo-morphometric analysis.
All numeric data are shown as mean±SEM. Statistical analysis between groups was performed by Mann-Whitney t-test or Fisher's exact test using Instat, GraphPad Software, San Diego, Calif. Cumulative percentage plots were analyzed using Wilcoxon statistics by Statview, Abacus Concepts, Inc., Berkeley, Calif.
Vascular injury was induced in C57B1/6 mice as described for Example 2. Following irradiation, the mice were treated for either 14 days or 28 days with intraperitoneal injections of (1) EGF-Gen or unconjugated EGF (modified EGF not conjugated to genistein) at a dose level of 0.1 mg/kg/dose, once in the morning and once in the evening. For 14 day treatment, this dose represents a cumulative total dose level of 2.8 mg/kg and 2% of the highest nontoxic cumulative dosed tested in toxicity studies (Uckun et al., 1998, Clinical Cancer Res 5:1125-1134). For 28 day treatment, this dose represents a cumulative total dose level of 5.6 mg/kg and 4% of the highest nontoxic cumulative dosed tested in toxicity studies. Control animals were injected with 2 mg/kg/dose of unconjugated genistein or derivatives of 6, 7-dimethoxyquinizalone dissolved in 10% DMSO once per day or with PBS. […]

Molecule	Potency of the conjugate relative to unconjugated Genistein (breast cancer cells)	Effect on migration of VSMC (in words) [1]	Concentration giving complete cessation of in vitro migration of VSMC ([1]; overnight incubation, then Matrigel migration assay)	Stenosis Index (Mean ± SE), neointima/media ratio in areas of maximum neointimal hyperplasia, 2 weeks ([2]; i.p.)	Mice with neointimal hyperplasia detected, 2 weeks after vascular injury ([2]; i.p. 0.1 mg/kg/dose twice daily, 0.1 mg/kg)	Stenosis Index (Mean ± SE), neointima/media ratio in areas of maximum neointimal hyperplasia, 4 weeks ([2]; 4 weeks after injury, i.p., EGF-Gen 0.1 mg/kg/dose twice daily for 28 days, Gen or quinazolines 2 mg/kg/dose once per day in 10% DMSO)	Mice with neointima detected, 4 weeks post injury ([2]; 4 weeks, i.p. 0.1 mg/kg/dose twice daily)	Effect on neointimal hyperplasia / neointima formation (in words) [2]	Effect on neointimal hyperplasia / neointima formation (in words) ([2]; listed as EGF-Genistein)	Stenosis Index (Mean ± SE), neointima/media ratio in areas of maximum neointimal hyperplasia, 2 weeks ([2]; i.p., listed as unconjugated EGF)	Mice with neointimal hyperplasia detected, 2 weeks after vascular injury ([2]; i.p. 0.1 mg/kg/dose twice daily)
B1	1000 fold	inhibited the migration of VSMC in a dose dependent fashion	1 µg/mL	0.0±0.0	none of the 5; also recorded: none of the five	0.59±0.16	all of the 24	significantly reduced the magnitude of neointimal hyperplasia	suppressed migration of myofibroblasts into the mural thrombus and the formation of neointima		
B2		significantly promoted the migration		0.63 ± 0.20				ineffective		0.63±0.20	6 of 8
